The values that follow come from US20240117030A1.

Experiment [1] addresses recombinant human IL-13 R110Q (human), P35225. In words: cell-based or functional assay.
Experiment [2] has as its target T1, biotinylated human IL-33 wild-type (WT), reduced with 3 mM DTT (human) (UniProt O95760).
T1 sequence (biotinylated (site not stated), looked up): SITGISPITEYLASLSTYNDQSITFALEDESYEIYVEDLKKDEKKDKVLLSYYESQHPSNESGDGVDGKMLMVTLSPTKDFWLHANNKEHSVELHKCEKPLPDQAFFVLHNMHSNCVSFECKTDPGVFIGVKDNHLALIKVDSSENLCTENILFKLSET
In words: KinExA solution affinity, fixed antigen format, global fit.

The target of experiment [3] is recombinant human IL-33 (R&D Systems 3625-IL), reduced with DTT (human) (UniProt O95760). In words: cell-based or functional assay.
The target is the same in experiment [4]. Put plainly: cell-based or functional assay. This is another data set of the same source.
Experiment [5] concerns the target recombinant human IL-33 (R&D Systems 3625-IL) (human) (UniProt O95760). Put plainly: cell-based or functional assay.

Where two headings read alike, the source gives them in different places.

recombinant human IL-13 R110Q (human), P35225, sequence (P35225 35-146, stated change not applied): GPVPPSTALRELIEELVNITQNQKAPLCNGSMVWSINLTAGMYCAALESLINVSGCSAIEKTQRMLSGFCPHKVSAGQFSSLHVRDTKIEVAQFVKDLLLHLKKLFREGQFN

B1: IL13-0001 (antibody, human IgG1, kappa)
heavy: EVQLVESGGGLVQPGGSLRLSCAASGFTFSSYAMSWVRQAPGKGLEWVASISSGDTTYYPDSVKGRFTISRDNAKNSLYLQMNSLRAEDTAVYYCARNEGYYFGLTLWGQGTLVTVSSASTKGPSVFPLAPSSKSTSGGTAALGCLVKDYFPEPVTVSWNSGALTSGVHTFPAVLQSSGLYSLSSVVTVPSSSLGTQTYICNVNHKPSNTKVDKKVEPKSCDKTHTCPPCPAPEAAGAPSVFLFPPKPKDTLMISRTPEVTCVVVDVSHEDPEVKFNWYVDGVEVHNAKTKPREEQYNSTYRVVSVLTVLHQDWLNGKEYKCKVSNKALPAPIEKTISKAKGQPREPQVYTLPPSREEMTKNQVSLTCLVKGFYPSDIAVEWESNGQPENNYKTTPPVLDSDGSFFLYSKLTVDKSRWQQGNVFSCSVMHEALHNHYTQKSLSLSPGK
light: DIQMTQSPSSLSASVGDRVTITCKASESVDHFGWSLVHWYQQKPGKAPKLLIYRASNLESGVPSRFSGSGSGTDFTLTISSLQPEDFATYYCQQSNEDPWTFGGGTKVEIKRTVAAPSVFIFPPSDEQLKSGTASVVCLLNNFYPREAKVQWKVDNALQSGNSQESVTEQDSKDSTYSLSSTLTLSKADYEKHKVYACEVTHQGLSSPVTKSFNRGEC
Turning to B1, in experiment [1], the IC50 (median), Monocyte CD23 expression was 10.1 pM and the IC50 (median), STAT6 phosphorylation in HT-29 cells is 104 pM.

B2: IL33-0352 (Clinical Benchmark) (antibody, INN chains, looked up, V domains shown)
VH: EVQLVESGGNLEQPGGSLRLSCTASGFTFSRSAMNWVRRAPGKGLEWVSGISGSGGRTYYADSVKGRFTISRDNSKNTLYLQMNSLSAEDTAAYYCAKDSYTTSWYGGMDVWGHGTTVTVSS
VL: DIQMTQSPSSVSASVGDRVTITCRASQGIFSWLAWYQQKPGKAPKLLIYAASSLQSGVPSRFSGSGSGTDFTLTISSLQPEDFAIYYCQQANSVPITFGQGTRLEIK
modifications: IgG1 effector-null
In experiment [2], B2 showed a Kd of 0.66 pM. Moreover, the figures for the IC50 [nM] versus reduced human IL-33 (R&D), IC50 (AVE) in experiment [3] and in experiment [4] were 0.011 nM and 0.018 nM, respectively.

B3: IL33-265 (antibody, from a related filing, V domains shown)
VH: EVQLVESGGNLEQPGGSLRLSCTASGFTFSRSAMNWVRRAPGKGLEWVSGISGSGGRTYYADSVKGRFTISRDNSKNTLYLQMNSLSAEDTAAYYCAKDSYTTSWYGGMDVWGHGTTVTVSS
VL: DIQMTQSPSSVSASVGDRVTITCRASQGIFSWLAWYQQKPGKAPKLLIYAASSLQSGVPSRFSGSGSGTDFTLTISSLQPEDFAIYYCQQANSVPITFGQGTRLEIKR
In the case of B3, in experiment [5], the IC50 (pM) HEK-Blue IL-33 SEAP (mean) stood at 15.9 pM.

B4: IL33-310 (antibody, from a related filing, V domains shown)
VH: EVQLVESGGGLVQPGGSLRLSCAASGFTFSSFSMSWVRQAPGKGLEWVATISGGKTFTDYVDSVKGRFTISRDDSKNTLYLQMNSLRAEDTAVYYCTRANYGNWFFEVWGQGTLVTVSS
VL: EIVLTQSPATLSLSPGERATLSCRASESVAKYGLSLLNWFQQKPGQPPRLLIFAASNRGSGIPARFSGSGSGTDFTLTISSLEPEDFAVYYCQQSKEVPFTFGQGTKVEIKR
With B4, in experiment [5], the IC50 (pM) HEK-Blue IL-33 SEAP (mean) was 56.4 pM.
